Assay in all cases: non-reducing SDS-PAGE of immunoprecipitates
The target in experiment [1] is recombinant rat fibronectin, A form (with EIIIA only), expressed in WEHI231 cells (rat).
Experiment [2] deals with recombinant rat fibronectin, B form (with EIIIB only), expressed in WEHI231 cells (rat).
Experiment [3] has as its target recombinant rat fibronectin, O form (no EIIIB, EIIIA or V segment), expressed in WEHI231 cells (rat).
The target of experiment [4] is recombinant rat fibronectin, V form (with the V segment only), expressed in WEHI231 cells (rat).

The record followed here is PMC2116055.

Turning to “recombinant rat fibronectin, A form (with EIIIA only), expressed in WEHI231 cells (natural protein)”, the stoichiometry N in experiment [1] was 2.
Take “recombinant rat fibronectin, B form (with EIIIB only), expressed in WEHI231 cells (natural protein)”: in experiment [2], the stoichiometry N worked out at 2.
In the case of “recombinant rat fibronectin, O form (no EIIIB, EIIIA or V segment), expressed in WEHI231 cells (natural protein)”, in experiment [3], the percent in the dimeric form worked out at 50% and the stoichiometry N amounted to 2.
As to “recombinant rat fibronectin, V form (with the V segment only), expressed in WEHI231 cells (natural protein)”, in experiment [4], the percent in the dimeric form stood at 90% and the stoichiometry N stood at 2.

As a reminder, the stoichiometry N is a count of units in the complex or per binding partner.
